T1: MOCS2B p.Leu19Phe variant (human, UniProt O96007 1-188, p.Leu19Phe)
T1 construct: MOCS2B, large subunit of molybdopterin (MPT) synthase, human, patient variant c.57A>T (NM_004531.5; p.Leu19Phe), rs776441627; Variant found in patients (natural variant); Cloned into pET15b; also called MOCS2B L19F; MOCS2B Leu19Phe; source: Escherichia coli BL21 (pET15b), purified (ammonium sulfate precipitation, size exclusion chromatography on Superdex 200)
T1 sequence (looked up): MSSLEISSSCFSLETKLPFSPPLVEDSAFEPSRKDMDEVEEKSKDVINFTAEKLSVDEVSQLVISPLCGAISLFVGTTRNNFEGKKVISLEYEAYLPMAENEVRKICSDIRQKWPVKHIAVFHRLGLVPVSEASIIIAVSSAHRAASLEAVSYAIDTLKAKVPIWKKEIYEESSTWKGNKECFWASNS

T2: MOCS2B wild-type (large subunit of MPT synthase) (human, UniProt O96007 1-188)
T2 construct: MOCS2B, large subunit of molybdopterin (MPT) synthase, human; encoded by MOCS2 transcript variant 3 (NM_004531.5); Cloned into pET15b, a vector that can add an N-terminal His tag; also called MOCS2B WT; WT MOCS2B; source: Escherichia coli BL21 (pET15b), purified (ammonium sulfate precipitation, size exclusion chromatography on Superdex 200)
T2 sequence (looked up): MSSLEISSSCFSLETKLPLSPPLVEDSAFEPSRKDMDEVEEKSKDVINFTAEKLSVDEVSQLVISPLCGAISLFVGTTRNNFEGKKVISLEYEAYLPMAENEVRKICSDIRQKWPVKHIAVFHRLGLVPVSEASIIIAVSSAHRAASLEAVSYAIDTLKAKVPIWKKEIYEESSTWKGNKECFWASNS


Columns and labels:
[1] = target: T1, MOCS2B p.Leu19Phe variant; experiment: ITC; VP-ITC; 20-50 uM MOCS2B in the sample cell (1.5 mL), 200-500 uM MOCS2A in the syringe; 10 mM Tris-HCl, 250 mM NaCl, pH 8.0; n = 3 experiments; conditions: both partners purified
[2] = target: T2, MOCS2B wild-type (large subunit of MPT …); experiment: as above; conditions: both partners purified
[3] = target: T1, MOCS2B p.Leu19Phe variant; experiment: cell-based or functional assay

Row | Kd [1] [nM] | Kd [2] [nM] | stoichiometry N [2] | in vitro MPT synthesis activity (500 pmol cPMP, 200 pmol MOCS2B, 0-500 pmol MOCS2A; HPLC Form A method), relative to WT MOCS2A/B [3] | Binder
1 | 114 ± 16 | 359 ± 47 | 1.15 ± 0.2 | – | MOCS2A wild-type (small subunit of MPT synthase) (natural protein, human, UniProt O96033 1-88, looked up, thiocarboxylated C-terminal tail, MOCS2A, small subunit of molybdopterin (MPT) synthase, human; encoded by MOCS2 transcript variant 1 (NM_176806.4); also called MOCS2A WT; WT MOCS2A) MVPLCQVEVLYFAKSAEITGVRSETISVPQEIKALQLWKEIETRHPGLADVRNQIIFAVRQEYVELGDQLLVLQPGDEIAVIPPISGG
2 | 7400 ± 2100 | 2800 ± 300 | – | ~20 % of WT | MOCS2A p.Ile82Phe variant (natural protein, human, UniProt O96033 1-88, looked up, thiocarboxylated C-terminal tail, MOCS2A, small subunit of molybdopterin (MPT) synthase, human, patient variant c.244A>T (NM_176806.4; p.Ile82Phe), rs776441627; Variant found in patients (natural variant); also called MOCS2A I82F; MOCS2 p.Ile82Phe) MVPLCQVEVLYFAKSAEITGVRSETISVPQEIKALQLWKEIETRHPGLADVRNQIIFAVRQEYVELGDQLLVLQPGDEIAVFPPISGG

Source: paper PMC12289762, “A prevalent MOCS2 variant in the Roma population is associated with a novel mild form of molybdenum cofactor deficiency” (European Journal of Pediatrics, 2025)
